Measurements published in publication PMC13345917, “EasyGrid: a versatile platform for automated cryo-EM sample preparation and quality control” (Nature Methods, 2026).

Biological target: the molecule itself
Test: cryo-EM structure; single-particle analysis of KR2 rhodopsin in 50 mM Tris-HCl pH 8.0, 0.1 M NaCl, 0.03% DDM; grids made with EasyGrid at 4 °C; non-symmetrised ab initio model, then refinement with imposed C5 symmetry

B1: KR2 rhodopsin (NaR gene from Krokinobacter eikastus) (natural protein)
chain: MTQELGNANFENFIGATEGFSEIAYQFTSHILTLGYAVMLAGLLYFILTIKNVDKKFQMSNILSAVVMVSAFLLLYAQAQNWTSSFTFNEEVGRYFLDPSGDLFNNGYRYLNWLIDVPMLLFQILFVVSLTTSKFSSVRNQFWFSGAMMIITGYIGQFYEVSNLTAFLVWGAISSAFFFHILWVMKKVINEGKEGISPAGQKILSNIWILFLISWTLYPGAYLMPYLTGVDGFLYSEDGVMARQLVYTIADVSSKVIYGVLLGNLAITLSKNKELVEANS
notes: KR2 rhodopsin, NaR gene from Krokinobacter eikastus, codon-optimised for E. coli; also called KR2 bacterial rhodopsin; source: E. coli C41, pET15b, purified in DDM (Ni-NTA, Superdex 200 Increase)
- stoichiometry N: 5
